This data set deals with the molecule itself. In words: cryo-EM structure; native full-length gB with 93k Fab fragments added in molar excess, overnight at +4 °C; Amphipol 8-35, TBS pH7.4, Superose-6; single particle, C3 symmetry imposed.

The text below walks through data of PMC7435202 (Nature Communications, 2020).

B1: native, full-length VZV glycoprotein B (gB) purified from VZV-infected MeWo cells (natural protein, UniProt Q4JR05 72-931, looked up)
chain: VSPSSFYESLQVEPTQSEDITRSAHLGDGDEIREAIHKSQDAETKPTFYVCPPPTGSTIVRLEPPRTCPDYHLGKNFTEGIAVVYKENIAAYKFKATVYYKDVIVSTAWAGSSYTQITNRYADRVPIPVSEITDTIDKFGKCSSKATYVRNNHKVEAFNEDKNPQDMPLIASKYNSVGSKAWHTTNDTYMVAGTPGTYRTGTSVNCIIEEVEARSIFPYDSFGLSTGDIIYMSPFFGLRDGAYREHSNYAMDRFHQFEGYRQRDLDTRALLEPAARNFLVTPHLTVGWNWKPKRTEVCSLVKWREVEDVVRDEYAHNFRFTMKTLSTTFISETNEFNLNQIHLSQCVKEEARAIINRIYTTRYNSSHVRTGDIQTYLARGGFVVVFQPLLSNSLARLYLQELVRENTNHSPQKHPTRNTRSRRSVPVELRANRTITTTSSVEFAMLQFTYDHIQEHVNEMLARISSSWCQLQNRERALWSGLFPINPSALASTILDQRVKARILGDVISVSNCPELGSDTRIILQNSMRVSGSTTRCYSRPLISIVSLNGSGTVEGQLGTDNELIMSRDLLEPCVANHKRYFLFGHHYVYYEDYRYVREIAVHDVGMISTYVDLNLTLLKDREFMPLQVYTRDELRDTGLLDYSEIQRRNQMHSLRFYDIDKVVQYDSGTAIMQGMAQFFQGLGTAGQAVGHVVLGATGALLSTVHGFTTFLSNPFGALAVGLLVLAGLVAAFFAYRYVLKLKTSPMKALYPLTTKGLKQLPEGMDPFAEKPNATDTPIEEIGDSQNTEPSVNSGFDPDKFREAQEMIKYMTLVSAAERQESKARKKNKTSALLTSRLTGLALRNRRGYSRVRTENVTGV
notes: Varicella-zoster virus glycoprotein B, 931 amino acids, ORF31, strain pOka; cleaved by furin: both uncleaved (130 kDa) and cleaved (65 kDa) gB are present; also called native gB; full-length gB
As usually defined, the stoichiometry N is a count of units in the complex or per binding partner. For B1, the “stoichiometry N” value is 3.
